Measured values published in paper PMC4344939.

Biological target: Recombinant human galectin-1 (human) (UniProt P09382)
Test: SPR

Sequence of UniProt P09382 (P09382 whole entry): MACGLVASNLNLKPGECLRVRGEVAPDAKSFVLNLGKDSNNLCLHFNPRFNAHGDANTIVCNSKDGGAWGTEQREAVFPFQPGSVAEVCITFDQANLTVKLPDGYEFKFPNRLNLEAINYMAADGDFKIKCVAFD

“Recombinant hemagglutinin (HA) from influenza A H1N1 (A/Puerto Rico/8/1934) (from UniProt P03452) (natural protein)” was tested, and the Kd was 0.425 µM.
